Target: T1, TALER14 (synthetic, UniProt Q56830 SEQ:262-1310)
T1 chain: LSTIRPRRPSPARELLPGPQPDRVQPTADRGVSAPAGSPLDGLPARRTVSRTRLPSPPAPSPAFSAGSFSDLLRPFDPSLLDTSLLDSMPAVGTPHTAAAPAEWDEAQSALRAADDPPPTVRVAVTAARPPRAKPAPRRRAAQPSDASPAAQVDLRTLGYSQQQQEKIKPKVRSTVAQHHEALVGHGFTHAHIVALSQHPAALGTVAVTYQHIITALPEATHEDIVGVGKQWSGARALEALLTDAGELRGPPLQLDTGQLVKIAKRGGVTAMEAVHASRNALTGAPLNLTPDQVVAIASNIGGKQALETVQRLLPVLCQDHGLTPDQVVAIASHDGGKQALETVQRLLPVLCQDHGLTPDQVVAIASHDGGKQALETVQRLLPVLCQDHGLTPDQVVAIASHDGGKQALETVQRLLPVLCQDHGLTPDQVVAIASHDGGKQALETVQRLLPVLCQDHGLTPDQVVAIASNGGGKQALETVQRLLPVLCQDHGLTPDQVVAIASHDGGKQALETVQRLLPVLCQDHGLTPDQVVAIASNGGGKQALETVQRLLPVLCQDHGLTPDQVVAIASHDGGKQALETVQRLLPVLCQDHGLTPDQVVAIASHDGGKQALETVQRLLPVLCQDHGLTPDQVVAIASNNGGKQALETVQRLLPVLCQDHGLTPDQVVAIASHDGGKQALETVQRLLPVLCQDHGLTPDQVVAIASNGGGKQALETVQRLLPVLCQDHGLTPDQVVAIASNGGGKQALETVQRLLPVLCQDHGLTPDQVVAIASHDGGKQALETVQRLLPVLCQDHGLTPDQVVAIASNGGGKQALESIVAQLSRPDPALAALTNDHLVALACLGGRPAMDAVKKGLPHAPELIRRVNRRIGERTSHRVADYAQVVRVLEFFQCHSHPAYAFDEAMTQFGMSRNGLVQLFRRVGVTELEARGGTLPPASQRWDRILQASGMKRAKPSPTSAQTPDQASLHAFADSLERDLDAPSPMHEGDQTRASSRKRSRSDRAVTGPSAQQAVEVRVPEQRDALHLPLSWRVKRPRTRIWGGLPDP
Test: cell_activity; HEK293, two sites flanking CMVmini
Conditions: tags: EYFP-2A upstream, SV40 NLS

B1: T14 site (dsDNA)
DNA 1: TACCCCTCTCCGCTTCT
DNA 2: AGAAGCGGAGAGGGGTA
  binding signal: 1440 fold repression
